Measured values taken from the supplement of paper PMC5998384.

Tests used:
[1] = system: HeLa Kyoto; test: melting temperature (median over replicates), in situ; higher = more thermally stable
[2] = system: HeLa Kyoto; test: solubility change mitosis vs G1/S (difference of NP-40 vs SDS log2 ratios) (log2 ratio difference); higher = more soluble in mitosis
[3] = system: HeLa Kyoto; test: solubility in G1/S (NP-40 vs SDS abundance) (log2 ratio); higher = more soluble; conditions: cell cycle stage: G1/S
[4] = system: HeLa Kyoto; test: thermal stability score vs G1/S (z-score of summed log2 fold changes over temperatures); higher = more thermally stable than in G1/S
[5] = cell cycle stage: early G1 (4.5 h after nocodazole release)
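Wherever melting temperature (median over replicates), in situ is given: HeLa Kyoto cells synchronized by double thymidine or nocodazole block, proteins quantified by TMT10plex mass spectrometry, three independent biological replicates.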
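Wherever solubility change mitosis vs G1/S (difference of NP-40 vs SDS log2 ratios) is given: synchronized HeLa Kyoto cells (double thymidine block for G1/S, nocodazole release for mitosis), protein amounts in NP-40 versus SDS lysates quantified by mass spectrometry, three biological replicates.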
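Wherever solubility in G1/S (NP-40 vs SDS abundance) is given: HeLa Kyoto cells arrested at G1/S by double thymidine block, proteins quantified by TMT10plex mass spectrometry in mild NP-40 versus SDS extracts, three biological replicates.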
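Wherever thermal stability score vs G1/S (z-score of summed log2 fold changes over temperatures) is given: synchronized HeLa Kyoto cells, proteins quantified by TMT10plex mass spectrometry, three biological replicates, mitosis taken 0.5 h after nocodazole release, G1/S directly after double thymidine block.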

Row | Substance | melting temperature ([1]; cell cycle stage: G1/S) | melting temperature ([1]; cell cycle stage: mitosis) | solubility change mitosis (log2) [2] | solubility in G1/S (log2) [3] | thermal stability score [4, 5] | thermal stability score ([4]; cell cycle stage: mitosis)
1 | MAREKEMQEFTRSFFRGRPDLSTLTHSIVRRRYLAHSGRSHLEPEEKQALKRLVEEELLKMQVDEAASREDKLDLTKKGKRPPTPCSDPERKRFRFNSESESGSEASSPDYFGPPAKNGVAAEVSPAKEENPRRASKAVEESSDEERQRDLPAQRGEESSEEEEKGYKGKTRKKPVVKKQAPGKASVSRKQAREESEESEAEPVQRTAKKVEGNKGTKSLKESEQESEEEILAQKKEQREEEVEEEEKEEDEEKGDWKPRTRSNGRRKSAREERSCKQKSQAKRLLGDSDSEEEQKEAASSGDDSGRDREPPVQRKSEDRTQLKGGKRLSGSSEDEEDSGKGEPTAKGSRKMARLGSTSGEESDLEREVSDSEAGGGPQGERKNRSSKKSSRKGRTRSSSSSSDGSPEAKGGKAGSGRRGEDHPAVMRLKRYIRACGAHRNYKKLLGSCCSHKERLSILRAELEALGMKGTPSLGKCRALKEQREEAAEVASLDVANIISGSGRPRRRTAWNPLGEAAPPGELYRRTLDSDEERPRPAPPDWSHMRGIISSDGESN [HIRIP3] | 53 °C | 52.5 °C | 0.398 | 0.0105 | 0.379 | 0.978
2 | MSSSVEQKKGPTRQRKCGFCKSNRDKECGQLLISENQKVAAHHKCMLFSSALVSSHSDNESLGGFSIEDVQKEIKRGTKLMCSLCHCPGATIGCDVKTCHRTYHYHCALHDKAQIREKPSQGIYMVYCRKHKKTAHNSEADLEESFNEHELEPSSPKSKKKSRKGRPRKTNFKGLSEDTRSTSSHGTDEMESSSYRDRSPHRSSPSDTRPKCGFCHVGEEENEARGKLHIFNAKKAAAHYKCMLFSSGTVQLTTTSRAEFGDFDIKTVLQEIKRGKRMKCTLCSQPGATIGCEIKACVKTYHYHCGVQDKAKYIENMSRGIYKLYCKNHSGNDERDEEDEERESKSRGKVEIDQQQLTQQQLNGN [PHF6] | 48.6 °C | 50.6 °C | 0.284 | -0.717 | 1.18 | 1.95
3 | MAAAPPLRDRLSFLHRLPILLKGTSDDDVPCPGYLFEEIAKISHESPGSSQCLLEYLLSRLHSSSGHGKLKVLKILLYLCSHGSSFFLLILKRNSAFIQEAAAFAGPPDPLHGNSLYQKVRAAAQDLGSTLFSDTVLPLAPSQPLGTPPATGMGSQARPHSTLQGFGYSKEHGRTAVRHQPGQAGGGWDELDSGPSSQNSSQNSDLSRVSDSGSHSGSDSHSGASREPGDLAERVEVVALSDCQQELSLVRTVTRGPRAFLSREEAQHFIKACGLLNCEAVLQLLTCHLRGTSECTQLRALCAIASLGSSDLLPQEHILLRTRPWLQELSMGSPGPVTNKATKILRHFEASCGQLSPARGTSAEPGPTAALPGPSDLLTDAVPLPGSQVFLQPLSSTPVSSRSPAPSSGMPSSPVPTPPPDASPIPAPGDPSEAEARLAESRRWRPERIPGGTDSPKRGPSSCAWSRDSLFAGMELVACPRLVGAGAAAGESCPDAPRAPQTSSQRTAAKEPPGSEPSAFAFLNA [ENTHD2] | 53.4 °C | 50.6 °C | 0.0532 | 0.305 | -0.323 | -0.0735
4 | MKARRNKKQIPSFRKLIKTSKVKLENKLKNKQFKQQSTLKKYRKEQRKLRQAVKDAVSKKPIPLENPKEKRPGKRIEREEEEEEEALPLDMMDEDDLQLMKDLGQRVSFLTRDLSSSEPVHAKKRKHERIIDKYEKIPRTLQTAPEKELIHLLPIKDKSGIIPQTREKPVTDSNKDEEDQEEERELEEEIIEDPIQELTIEEHLIERKKKLQEKKMHIAALASAILSDPENNIKKLKELRSMLMEQDPDVAVTVRKLVIVSLMELFKDITPSYKIRPLTEAEKSTKTRKETQKLREFEEGLVSQYKFYLENLEQMVKDWKQRKLKKSNVVSLKAYKGLAEVAVKSLCELLVALPHFNFHNNIIVLIVPLMNDMSKLISEMCCEAVKKLFKQDKLGQASLGVIKVISGFVKGRNYEVRPEMLKTFLCLRIKEVEVKKDTEDINKPKKFMTFKEKRKSLSRMQRKWKKAEEKLERELREAEASESTEKKLKLHTETLNIVFVTYFRILKKAQRSPLLPAVLEGLAKFAHLINVEFFDDLLVVLHTLIESGDLSYQESLHCVQTAFHILSGQGDVLNIDPLKFYTHLYKTLFKLHAGATNEGVEIVLQCLDVMLTKRRKQVSQQRALAFIKRLCTLALHVLPNSSIGILATTRILMHTFPKTDLLLDSESQGSGVFLPELDEPEYCNAQNTALWELHALRRHYHPIVQRFAAHLIAGAPSEGSGALKPELSRRSATELFEAYSMAEMTFNPPVESSNPKIKGKFLQGDSFLNEDLNQLIKRYSSEVATESPLDFTKYLKTSLH [NOC3L] | 49.2 °C | 50 °C | 1.29 | -1.96 | 0.294 | 0.855
5 | MKKVRLKELESRLQQVDGFEKPKLLLEQYPTRPHIAACMLYTIHNTYDDIENKVVADLGCGCGVLSIGTAMLGAGLCVGFDIDEDALEIFNRNAEEFELTNIDMVQCDVCLLSNRMSKSFDTVIMNPPFGTKNNKGTDMAFLKTALEMARTAVYSLHKSSTREHVQKKAAEWKIKIDIIAELRYDLPASYKFHKKKSVDIEVDLIRFSF [METTL5] | 58.9 °C | 63.4 °C | -0.277 | -0.0292 | -0.685 | -0.982
6 | MNSSTSTMSEEPDALSVVNQLRDLAADPLNRRAIVQDQGCLPGLILFMDHPNPPVVHSALLALRYLAECRANREKMKGELGMMLSLQNVIQKTTTPGETKLLASEIYDILQSSNMADGDSFNEMNSRRRKAQFFLGTTNKRAKTVVLHIDGLDDTSRRNLCEEALLKIKGVISFTFQMAVQRCVVRIRSDLKAEALASAIASTKVMKAQQVVKSESGEEMLVPFQDTPVEVEQNTELPDYLPEDESPTKEQDKAVSRVGSHPEGGASWLSTAANFLSRSFYW [ARMC1] | 50.6 °C | 50.8 °C | 0.0691 | 0.386 | 0.134 | 0.316
7 | MEPEPEPAAVEVPAGRVLSARELFAARSRSQKLPQRSHGPKDFLPDGSAAQAERLRRCREELWQLLAEQRVERLGSLVAAEWRPEEGFVELKSPAGKFWQTMGFSEQGRQRLHPEEALYLLECGSIHLFHQDLPLSIQEAYQLLLTDHTVTFLQYQVFSHLKRLGYVVRRFQPSSVLSPYERQLNLDASVQHLEDGDGKRKRSSSSPRSINKKAKALDNSLQPKSLAASSPPPCSQPSQCPEEKPQESSPMKGPGGPFQLLGSLGPSPGPAREGVGCSWESGRAENGVTGAGKRRWNFEQISFPNMASDSRHTLLRAPAPELLPANVAGRETDAESWCQKLNQRKEKLSRREREHHAEAAQFQEDVNADPEVQRCSSWREYKELLQRRQVQRSQRRAPHLWGQPVTPLLSPGQASSPAVVLQHISVLQTTHLPDGGARLLEKSGGLEIIFDVYQADAVATFRKNNPGKPYARMCISGFDEPVPDLCSLKRLSYQSGDVPLIFALVDHGDISFYSFRDFTLPQDVGH [TSEN54] | 48.8 °C | 50 °C | -0.153 | 0.322 | 0.317 | 0.466
8 | MDASLEKIADPTLAEMGKNLKEAVKMLEDSQRRTEEENGKKLISGDIPGPLQGSGQDMVSILQLVQNLMHGDEDEEPQSPRIQNIGEQGHMALLGHSLGAYISTLDKEKLRKLTTRILSDTTLWLCRIFRYENGCAYFHEEEREGLAKICRLAIHSRYEDFVVDGFNVLYNKKPVIYLSAAARPGLGQYLCNQLGLPFPCLCRVPCNTVFGSQHQMDVAFLEKLIKDDIERGRLPLLLVANAGTAAVGHTDKIGRLKELCEQYGIWLHVEGVNLATLALGYVSSSVLAAAKCDSMTMTPGPWLGLPAVPAVTLYKHDDPALTLVAGLTSNKPTDKLRALPLWLSLQYLGLDGFVERIKHACQLSQRLQESLKKVNYIKILVEDELSSPVVVFRFFQELPGSDPVFKAVPVPNMTPSGVGRERHSCDALNRWLGEQLKQLVPASGLTVMDLEAEGTCLRFSPLMTAAVLGTRGEDVDQLVACIESKLPVLCCTLQLREEFKQEVEATAGLLYVDDPNWSGIGVVRYEHANDDKSSLKSDPEGENIHAGLLKKLNELESDLTFKIGPEYKSMKSCLYVGMASDNVDAAELVETIAATAREIEENSRLLENMTEVVRKGIQEAQVELQKASEERLLEEGVLRQIPVVGSVLNWFSPVQALQKGRTFNLTAGSLESTEPIYVYKAQGAGVTLPPTPSGSRTKQRLPGQKPFKRSLRGSDALSETSSVSHIEDLEKVERLSSGPEQITLEASSTEGHPGAPSPQHTDQTEAFQKGVPHPEDDHSQVEGPESLR [PDXDC1] | 47.8 °C | 48.8 °C | -0.152 | 0.342 | 1.35 | 2.61
9 | ATRX | 49.2 °C | 51.4 °C | 0.492 | -1.33 | -0.452 | 0.516
10 | MARAGPAWLLLAIWVVLPSWLSSAKVSSLIERISDPKDLKKLLRTRNNVLVLYSKSEVAAENHLRLLSTVAQAVKGQGTICWVDCGDAESRKLCKKMKVDLSPKDKKVELFHYQDGAFHTEYNRAVTFKSIVAFLKDPKGPPLWEEDPGAKDVVHLDSEKDFRRLLKKEEKPLLIMFYAPWCSMCKRMMPHFQKAATQLRGHAVLAGMNVYSSEFENIKEEYSVRGFPTICYFEKGRFLFQYDNYGSTAEDIVEWLKNPQPPQPQVPETPWADEGGSVYHLTDEDFDQFVKEHSSVLVMFHAPWCGHCKKMKPEFEKAAEALHGEADSSGVLAAVDATVNKALAERFHISEFPTLKYFKNGEKYAVPVLRTKKKFLEWMQNPEAPPPPEPTWEEQQTSVLHLVGDNFRETLKKKKHTLVMFYAPWCPHCKKVIPHFTATADAFKDDRKIACAAVDCVKDKNQDLCQQEAVKGYPTFHYYHYGKFAEKYDSDRTELGFTNYIRALREGDHERLGKKKEEL [PDIA5] | 53.8 °C | 54.5 °C | -0.0327 | -0.136 | 2.7 | 2.84
11 | MSNVSEERRKRQQNIKEGLQFIQSPLSYPGTQEQYAVYLRALVRNLFNEGNDVYREHDWNNSISQYTEALNIADYAKSEEILIPKEIIEKLYINRIACYSNMGFHDKVLEDCNIVLSLNASNCKALYRKSKALSDLGRYKKAYDAVAKCSLAVPQDEHVIKLTQELAQKLGFKIRKAYVRAELSLKSVPGDGATKALNHSVEDIEPDLLTPRQEAVPVVSLPAPSFSHEVGSELASVPVMPLTSILPLQVEESALPSAVLANGGKMPFTMPEAFLDDGDMVLGDELDDLLDSAPETNETVMPSALVRGPLQTASVSPSMPFSASLLGTLPIGARYAPPPSFSEFYPPLTSSLEDFCSSLNSFSMSESKRDLSTSTSREGTPLNNSNSSLLLMNGPGSLFASENFLGISSQPRNDFGNFFGSAVTKPSSSVTPRHPLEGTHELRQACQICFVKSGPKLMDFTYHANIDHKCKKDILIGRIKNVEDKSWKKIRPRPTKTNYEGPYYICKDVAAEEECRYSGHCTFAYCQEEIDVWTLERKGAFSREAFFGGNGKINLTVFKLLQEHLGEFIFLCEKCFDHKPRMISKRNKDNSTACSHPVTKHEFEDNKCLVHILRETTVKYSKIRSFHGQCQLDLCRHEVRYGCLREDECFYAHSLVELKVWIMQNETGISHDAIAQESKRYWQNLEANVPGAQVLGNQIMPGFLNMKIKFVCAQCLRNGQVIEPDKNRKYCSAKARHSWTKDRRAMRVMSIERKKWMNIRPLPTKKQMPLQFDLCNHIASGKKCQYVGNCSFAHSPEEREVWTYMKENGIQDMEQFYELWLKSQKNEKSEDIASQSNKENGKQIHMPTDYAEVTVDFHCWMCGKNCNSEKQWQGHISSEKHKEKVFHTEDDQYCWQHRFPTGYFSICDRYMNGTCPEGNSCKFAHGNAELHEWEERRDALKMKLNKARKDHLIGPNDNDFGKYSFLFKDLN [ZC3H7A] | 48.5 °C | 47.7 °C | 0.169 | -0.49 | 0.548 | 2.36
